Experimental data reported in paper PMC6222646, “HIV-1 Integrase-Targeted Short Peptides Derived from a Viral Protein R Sequence” (Molecules : A Journal of Synthetic Chemistry and Natural …, 2018).
Where no end group is shown, it is not given here.

Target: HIV-1 integrase (IN) (HIV-1)

In the case of Ac-FIHFRIG-NH2 [peptide 1c (Ac-FIHFRIG-amide)], the 3'-P IC50 (in vitro IN 3'-processing assay) is reported as 23.5 µM and the ST IC50 (in vitro IN strand transfer assay) is reported as 4.7 µM.

FIHFRIG-NH2 [peptide 1b (FIHFRIG-amide)] showed a 3'-P IC50 (in vitro IN 3'-processing assay) of 31.5 µM and an ST IC50 (in vitro IN strand transfer assay) of 7.3 µM.
